In patent publication US20190359712A1 (Daiichi Sankyo, published 2019) one finds binding result and Kd data, which are given here for 14 molecules.

Experiment [1] deals with T1, cynomolgus monkey CD3 on cynomolgus monkey PBMC or T cell line HSC-F (cynomolgus monkey, UniProt Q95LI5 22-198).
T1 construct: whole, on cells; Native CD3 complex on monkey T cells; also called cynomolgus monkey CD3 (PBMC); cynomolgus monkey CD3 antigen
Nature of the experiment: flow cytometry on cynomolgus monkey PBMC.

For experiment [2], the target named is T2, human CD3 on human PBMC (human, UniProt P07766 23-207).
T2 construct: Native CD3 complex on T cells in PBMC; the other chains of the complex are native; also called human CD3 (PBMC)
Nature of the experiment: flow cytometry on human PBMC.

Experiment [3] deals with T3, CD3 immobilized on a sensor chip (Example 7)-1-2).
T3 construct: the text says only 'CD3 immobilized on a sensor chip'; also called human CD3
Nature of the experiment: SPR (BIAcore T-200), CD3 immobilized, scFv injected at five concentrations; concentration giving 1/2 Rmax. Here is the method:
Five different concentrations of the scFv were injected into CD3 immobilized on a sensor chip. Rmax was estimated from the resulting response, and the antibody concentration that reached 1/2 thereof was defined as the dissociation constant of the scFv for CD3.

Experiment [4] addresses T2, human CD3 on human PBMC. Nature of the experiment: flow cytometry on human PBMC, Penta-His Alexa Fluor 488 detection (rMFI). The protocol:
Commercially available human PBMC (Cellular Technology Ltd. (CTL)) was adjusted to an appropriate concentration with PBS containing 5% FBS. LIVE/DEAD Fixable Near-IR Dead Cell Stain Kit (Thermo Fisher Scientific Inc.) and an anti-CD19 antibody (Beckman Coulter Inc.) were added to the cells, which were then left standing at 4° C. for 30 minutes. The cells were washed twice with PBS containing 5% FBS, then adjusted to a concentration of 1×10⁶ cells/mL with PBS containing 5% FBS, added at a concentration of 100 μL/well to a 96-well U-bottomed microplate, and centrifuged to remove a supernatant. […] The cells were washed twice with PBS containing 5% FBS. Then, Penta-His Alexa Fluor 488 (Qiagen N.V.) diluted with PBS containing 5% FBS was added at a concentration of 30 μL/well, and the plate was left standing at 4° C. for 30 minutes. The cells were washed twice with PBS containing 5% FBS and then resuspended in PBS containing 5% FBS, followed by detection using a flow cytometer (FACSCanto™ II; Becton, Dickinson and Company). The data was analyzed using Flowjo (Tree Star Inc.). The mean fluorescence intensity (MFI) of Alexa Fluor 488 in a fraction free of dead cells and CD19-positive cells was calculated. The MFI value of the scFv-unsupplemented sample was subtracted from the MFI value of the scFv-supplemented sample to calculate a relative value of MFI (rMFI).

T1 sequence (Q95LI5 22-198): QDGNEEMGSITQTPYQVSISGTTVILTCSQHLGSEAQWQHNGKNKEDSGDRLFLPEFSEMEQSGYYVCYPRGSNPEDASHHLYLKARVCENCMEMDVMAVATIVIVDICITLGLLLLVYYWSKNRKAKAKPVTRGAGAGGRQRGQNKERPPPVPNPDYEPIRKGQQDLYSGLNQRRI

B1: C3E-7085 (CDR modified humanized anti-CD3 scFv) (scFv)
scFv: GEVQLVESGGGLVQPGGSLRLSCAASGVTFNYYGMSWIRQAPGKGLEWVASITRSGGRIYYPDSVKGRFTISRENTQKTLYLQMNSLRAEDTAVYYCTLDGRDGWVAYWGQGTLVTVSSGGGGSGGGGSGGGGSNFMLTQPSSVSGVPGQRVTISCTGNTGNIGSNYVNWYQQLPGTAPKLLIYRDDKRPSGVPDRFSGSKSGTSASLAITGFQAEDEADYYCQSYSSGFIFGGGTKLTVLGAAAGAGGDYKDDDDKGAAAHHHHHH
notes: C3E-7036 with arginine for asparagine at position 53 of the VH; the change is already in the entry
Consider B1, for which the binding result (in experiment [1]; with human CD3 on human PBMC [2]) was “binds” throughout.

B2: C3E-3007 scFv (humanized OKT3 scFv) (scFv)
scFv: QVQLVQSGAESKKPGASVKVSCKASGYTFTRYTMHWVRQAPGQGLEWMGYINPSRGYTNYNQKFKDRVTITADKSTSTAYMELSSLRSEDTAVYYCARYYDDHYCLDYWGQGTLVTVSSGGGGSGGGGSGGGGSQIQMTQSPSSLAVSLGERATITCSASSSVSYMNWYQQKPGKAPKRWIYDTSKLASGVPDRFSGSGSGTDFTLTISSLQAEDVATYYCQQWSSNPFTFGQGTKVEIKRGASAAAGSGGDYKDDDDKGAAAHHHHHH
On to B2, for which, in experiment [3], the affinity, expressed as Kd, was 400 nM. Also, the binding result with human CD3 on human PBMC [4] was “binds”.

B3: C3E-7078 (CDR modified humanized anti-CD3 scFv) (scFv)
scFv: GEVQLVESGGGLVQPGGSLRLSCAASGVTFNYYGMSWIRQAPGKGLEWVASITRSGGRIYYPDSVKGRFTISRENTQKTLYLQMNSLRAEDTAVYYCTLDGRDGWVAYWGQGTLVTVSSGGGGSGGGGSGGGGSNFMLTQPHSVSESPGKTVTISCKRNTGNIGSNYVNWYQQHEGSSPTTIIYRDDKRPDGVSDRFSGSIDRSSKSASLTISNLKTEDEADYFCQSYSSGFIFGGGTKLTVLGAAAGAGGDYKDDDDKGAAAHHHHHH
notes: the change is already in the entry
Take B3: the binding result (in experiment [1]; in the experiment with human CD3 on human PBMC [2]) was “binds” throughout.

B4: C3E-7086 (CDR modified humanized anti-CD3 scFv) (scFv)
scFv: GEVQLVESGGGLVQPGGSLRLSCAASGVTFNYYGMSWIRQAPGKGLEWVASITRSGGRIYYPDSVKGRFTISRENTQKTLYLQMNSLRAEDTAVYYCTLDGRDGWVAYWGQGTLVTVSSGGGGSGGGGSGGGGSNFMLTQPHSVSESPGKTVTISCKRNTGNIGSNYVNWYQQHEGSSPTTIIYRGDKRPDGVSDRFSGSIDRSSKSASLTISNLKTEDEADYFCQSYSSGFIFGGGTKLTVLGAAAGAGGDYKDDDDKGAAAHHHHHH
notes: C3E-7078 with glycine for aspartic acid at position 52 of the VL; the change is already in the entry
Turning to B4, the binding result (in experiment [1]; in the experiment with human CD3 on human PBMC [2]) was “binds” in each case.

B5: C3E-7089 (CDR modified humanized anti-CD3 scFv) (scFv)
scFv: GEVQLVESGGGLVQPGGSLRLSCAASGVTFNYYGMSWIRQAPGKGLEWVASITRSGGRIYYPDSVKGRFTISRENTQKTLYLQMNSLRAEDTAVYYCTLDGRDGWVAYWGQGTLVTVSSGGGGSGGGGSGGGGSNFMLTQPHSVSESPGKTVTISCKRNTGNIGSNYVNWYQQHEGSSPTTIIYRSDKRPDGVSDRFSGSIDRSSKSASLTISNLKTEDEADYFCQSYSSGFIFGGGTKLTVLGAAAGAGGDYKDDDDKGAAAHHHHHH
notes: C3E-7078 with serine for aspartic acid at position 52 of the VL; the change is already in the entry
Consider B5, for which the binding result (in experiment [1]; with human CD3 on human PBMC [2]) was “binds” each time.

B6: C3E-7095 (CDR modified humanized anti-CD3 scFv) (scFv)
scFv: GEVQLVESGGGLVQPGGSLRLSCAASGVTFNYYGMSWIRQAPGKGLEWVASITSSGGRIYYPDSVKGRFTISRENTQKTLYLQMNSLRAEDTAVYYCTLDGRDGWVAYWGQGTLVTVSSGGGGSGGGGSGGGGSNFMLTQPHSVSESPGKTVTISCKRNTGNIGSNYVNWYQQHEGSSPTTIIYRADKRPDGVSDRFSGSIDRSSKSASLTISNLKTEDEADYFCQSYSSGFIFGGGTKLTVLGAAAGAGGDYKDDDDKGAAAHHHHHH
notes: C3E-7079 with alanine for aspartic acid at position 52 of the VL; the change is already in the entry
With B6, the binding result (in experiment [1]; in the experiment with human CD3 on human PBMC [2]) was “binds” in each case.

B7: C3E-7079 (CDR modified humanized anti-CD3 scFv) (scFv)
scFv: GEVQLVESGGGLVQPGGSLRLSCAASGVTFNYYGMSWIRQAPGKGLEWVASITSSGGRIYYPDSVKGRFTISRENTQKTLYLQMNSLRAEDTAVYYCTLDGRDGWVAYWGQGTLVTVSSGGGGSGGGGSGGGGSNFMLTQPHSVSESPGKTVTISCKRNTGNIGSNYVNWYQQHEGSSPTTIIYRDDKRPDGVSDRFSGSIDRSSKSASLTISNLKTEDEADYFCQSYSSGFIFGGGTKLTVLGAAAGAGGDYKDDDDKGAAAHHHHHH
notes: as for B3
With B7, the binding result (in experiment [1]; with human CD3 on human PBMC [2]) was “binds” each time.

B8: C3E-7090 (CDR modified humanized anti-CD3 scFv) (scFv)
scFv: GEVQLVESGGGLVQPGGSLRLSCAASGVTFNYYGMSWIRQAPGKGLEWVASITRSGGRIYYPDSVKGRFTISRENTQKTLYLQMNSLRAEDTAVYYCTLDGRDGWVAYWGQGTLVTVSSGGGGSGGGGSGGGGSNFMLTQPHSVSESPGKTVTISCKRNTGNIGSNYVNWYQQHEGSSPTTIIYRADKRPDGVSDRFSGSIDRSSKSASLTISNLKTEDEADYFCQSYSSGFIFGGGTKLTVLGAAAGAGGDYKDDDDKGAAAHHHHHH
notes: C3E-7078 with alanine for aspartic acid at position 52 of the VL; the change is already in the entry
With B8, the binding result (in experiment [1]; with human CD3 on human PBMC [2]) was “binds” throughout.

B9: C3E-7091 (CDR modified humanized anti-CD3 scFv) (scFv)
scFv: GEVQLVESGGGLVQPGGSLRLSCAASGVTFNYYGMSWIRQAPGKGLEWVASITSSGGRIYYPDSVKGRFTISRENTQKTLYLQMNSLRAEDTAVYYCTLDGRDGWVAYWGQGTLVTVSSGGGGSGGGGSGGGGSNFMLTQPHSVSESPGKTVTISCKRNTGNIGSNYVNWYQQHEGSSPTTIIYRGDKRPDGVSDRFSGSIDRSSKSASLTISNLKTEDEADYFCQSYSSGFIFGGGTKLTVLGAAAGAGGDYKDDDDKGAAAHHHHHH
notes: C3E-7079 with glycine for aspartic acid at position 52 of the VL; the change is already in the entry
For B9, the binding result (in experiment [1]; with human CD3 on human PBMC [2]) was “binds” each time.

B10: C3E-7093 (CDR modified humanized anti-CD3 scFv) (scFv)
scFv: GEVQLVESGGGLVQPGGSLRLSCAASGVTFNYYGMSWIRQAPGKGLEWVASITSSGGRIYYPDSVKGRFTISRENTQKTLYLQMNSLRAEDTAVYYCTLDGRDGWVAYWGQGTLVTVSSGGGGSGGGGSGGGGSNFMLTQPHSVSESPGKTVTISCKRNTGNIGSNYVNWYQQHEGSSPTTIIYRNDKRPDGVSDRFSGSIDRSSKSASLTISNLKTEDEADYFCQSYSSGFIFGGGTKLTVLGAAAGAGGDYKDDDDKGAAAHHHHHH
notes: C3E-7079 with asparagine for aspartic acid at position 52 of the VL; the change is already in the entry
B10: the binding result (in experiment [1]; with human CD3 on human PBMC [2]) was “binds” throughout.

B11: C3E-7092 (CDR modified humanized anti-CD3 scFv) (scFv)
scFv: GEVQLVESGGGLVQPGGSLRLSCAASGVTFNYYGMSWIRQAPGKGLEWVASITSSGGRIYYPDSVKGRFTISRENTQKTLYLQMNSLRAEDTAVYYCTLDGRDGWVAYWGQGTLVTVSSGGGGSGGGGSGGGGSNFMLTQPHSVSESPGKTVTISCKRNTGNIGSNYVNWYQQHEGSSPTTIIYRQDKRPDGVSDRFSGSIDRSSKSASLTISNLKTEDEADYFCQSYSSGFIFGGGTKLTVLGAAAGAGGDYKDDDDKGAAAHHHHHH
notes: C3E-7079 with glutamine for aspartic acid at position 52 of the VL; the change is already in the entry
On to B11, for which the binding result (in experiment [1]; with human CD3 on human PBMC [2]) was “binds” throughout.

B12: C3E-7088 (CDR modified humanized anti-CD3 scFv) (scFv)
scFv: GEVQLVESGGGLVQPGGSLRLSCAASGVTFNYYGMSWIRQAPGKGLEWVASITRSGGRIYYPDSVKGRFTISRENTQKTLYLQMNSLRAEDTAVYYCTLDGRDGWVAYWGQGTLVTVSSGGGGSGGGGSGGGGSNFMLTQPHSVSESPGKTVTISCKRNTGNIGSNYVNWYQQHEGSSPTTIIYRNDKRPDGVSDRFSGSIDRSSKSASLTISNLKTEDEADYFCQSYSSGFIFGGGTKLTVLGAAAGAGGDYKDDDDKGAAAHHHHHH
notes: C3E-7078 with asparagine for aspartic acid at position 52 of the VL; the change is already in the entry
For B12, the binding result (in experiment [1]; with human CD3 on human PBMC [2]) was “binds” each time.

B13: C3E-7087 (CDR modified humanized anti-CD3 scFv) (scFv)
scFv: GEVQLVESGGGLVQPGGSLRLSCAASGVTFNYYGMSWIRQAPGKGLEWVASITRSGGRIYYPDSVKGRFTISRENTQKTLYLQMNSLRAEDTAVYYCTLDGRDGWVAYWGQGTLVTVSSGGGGSGGGGSGGGGSNFMLTQPHSVSESPGKTVTISCKRNTGNIGSNYVNWYQQHEGSSPTTIIYRQDKRPDGVSDRFSGSIDRSSKSASLTISNLKTEDEADYFCQSYSSGFIFGGGTKLTVLGAAAGAGGDYKDDDDKGAAAHHHHHH
notes: C3E-7078 with glutamine for aspartic acid at position 52 of the VL; the change is already in the entry
As for B13, the binding result (in experiment [1]; with human CD3 on human PBMC [2]) was “binds” in each case.

B14: C3E-7094 (CDR modified humanized anti-CD3 scFv) (scFv)
scFv: GEVQLVESGGGLVQPGGSLRLSCAASGVTFNYYGMSWIRQAPGKGLEWVASITSSGGRIYYPDSVKGRFTISRENTQKTLYLQMNSLRAEDTAVYYCTLDGRDGWVAYWGQGTLVTVSSGGGGSGGGGSGGGGSNFMLTQPHSVSESPGKTVTISCKRNTGNIGSNYVNWYQQHEGSSPTTIIYRSDKRPDGVSDRFSGSIDRSSKSASLTISNLKTEDEADYFCQSYSSGFIFGGGTKLTVLGAAAGAGGDYKDDDDKGAAAHHHHHH
notes: C3E-7079 with serine for aspartic acid at position 52 of the VL; the change is already in the entry
With B14, the binding result (in experiment [1]; in the experiment with human CD3 on human PBMC [2]) was “binds” each time.
